These results are taken from the NTF2 design screens of Basanta et al. (2020).

The data set is described as follows: protease stability score; higher = more stable; yeast display proteolysis, trypsin and chymotrypsin.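 Note: relative to predicted unfolded state with 0 unfolded-like and 1 meaning tenfold more protease.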
“SEEHKRIEKLLRRLQDALKTGDERDIMNLLDPNVRIEINGKDLIGREVWAKIMHHLRVEDSEINIHHSRSQGNFLESDIETHRHIHVDGKDIDLTWEEHVVIIKVDGKWKIERVHIR” showed a protease stability score of 1.17.
The result for “SEEHKVAQHAIEIEEHVWHTGDERMLHELFDPDARLIINGQEFHGREELHRFREEMRITHMRTKEVRVQGDKMEIHVRVDVDINGKRTDIRVIIISRKVDGRWINTEIEFR” reads 0.734; that for “SEEHKWVHMAFEVLLKVLKTGDEENVNRLFDPHVRVEWDGREIHGMETFTRELSHLRFKLDDFKLHHISVAEGRAIIHGRFHGRIEYGDKEHEFDSHVILFVLKVDGRWLIKKIEFR”, 1.83.
The result for “SEEHQTAEKMLRILLHLFLTGDEDKFEHLLDPHVRLHVGDKEIHGRELASKKLHEMVRHLRVRDVHVDTLDIQGNKMHFDTRIDVEQGDKTYILRFHWYNEKVDGRWRIHLVHYD” reads 1.68.
The result for “SEEHRDIEIARHIWVDMLRTGDERKSKELADPHVQIHFENRIYHGREEWERMIHELIHTLGADHIEIRIHSIEVQGDKILVHFHIEFQVNGKYLRYDSRSVFIKINGQWHLRSVYII” reads 1.25; that for “SEEHRDSKRAIDILVHSVRTGDEKSFESFLDPNVRIDVDGVELHGMEFATTIFREWRIHHVHIDRYRSQGDWIEVDTTMDVRYGDKTDTRKTELIILKVNGVWLLHSVIIR”, 1.19.
“SEEHRDVAKVIHDWFHDTITGDFKTLERLMDPNARLRINGQEFHGREEVRKFLERLLRHWREHSVEIEDINVQGDKASVHSHIDGEIDGRRIRMRSIFIILKFDGQWLMHSVIVE” displayed a protease stability score of 2.68.
The result for “SEEHRESEEASHEFRRLWETGDEKDFLKLADPHTRLEVNGKDIHGMREVTEFMKRRLHHLGFKHSDVKHEHVEVFDGKVRIEMIIEIHVNGVPLHTEVLVILTKINGKWRIHSITEEIK” reads 0.69; that for “SEEHRKVEEFARHWLHNFQTGDFRRFYELVDPNVRLRQGDWEFHGREIVAEWLFVHLEHARIDDYKVNHVENYNGRSIIDSEIHGEINGRRDITRVEIILIIINGRVHYVEIRIR”, 2.31; that for “SEEHRLMEEIARIFIHLFLTGDEELFKHLADPNTRTHIHYGDKHIDLHGREQTTKFWKEHLDRVDHVEIRINDIRSIGDKAHIDGVLIMLVNGREHTIHIEIIVVVINGKDTEFEFRLI”, 0.966.
The value for “SEEHRLSEEIARIEVHAWITGDEHILHELLDPNTRLEVNGREYHGREIVLKMIREFWENLGAKHREVKRVRIELIDGRVTTHIKDKVSQGDKELEIIIEIITEKVNGRWVIRNMRIELR” was 2.7; that for “SEEHRQILHVMHLILELWMTGDEETLYHLADPNVRLLIDGREYHGREQIRKVWEDHHRRADHVDFRLKRFELFENHAHVHGEFIIVVNGVEFRHETELELHVVNGRVKEHNLRIK” was 1.35; that for “SEEHTIAEEAIKHLIEILETGDFRTLHRMIDPHVRFEYGDKHLHGREILIKWFEEHWEKLGVDKVEVHVKDIEIQGNKAIVIGDIVINGQRKDTVWHLIVINGRIKMIRIEEH” was 1.7.
The value for “SEEKDDANRHLEIFFHYFITGDESSMLREADPHVQVEQGDKHIHGMEEWVTEWSKREKELGAKHIKLEDKRIHLINGRVHLILDLIIEVGDKRRRMILIVTIDKINGRWVMSQMKLEVR” was 1.2.
“SEEKDQLKHVLEDLLRSIITGDEERIVELLDPEVRVDVGEKHSHGRENAAHLVQKLSEELRWRDIHVRDVRLIGDKIDIETRLEGDINGRNLIFQTHRHVIKVNGRWYFRRIIIH”: the protease stability score was 1.38.
The value for “SEEKEDAKIALTLLHEVIETGDERLFREMADPRVQIIVNGKELHGWKHFKEMLRILSERYDHMEIKFRDVRVVDGQVDSDVTINLHYDGREDQMEMDIIISKFDGRWFNHQVIFR” was 1.34.
The value for “SEEKEDIDLAMEIFLHALETGDWEELLRQMDPNVRIVIGDKETHGREEFELTLLKLGIDHFHIKDMKLINGRLHLDTRVHFNGVTVQTEIIIVKFNGRWVIEEMDFQ” was 2.4.
The result for “SEEKEEVKEVVEHVLEVMLTGDEEHSRELVDPHVRIEVGDKSRHGRDDMAHWLSHARIHRLHIKRSEVIGDYLHIDVHIDVEYNGKRMTTDVRRHELKVDGRWFIREERIE” reads 1.42; that for “SEEKEHHHQLARDILEMLRTGNEEIWHRLLDPHVKLNIDGKEYHGREDVRQMLRDHLEKIKGIKLHVTDVKDFDGKVYVHGRWHVGNFTVDILTIYTFIDGRVHTMSEETR”, 1.41; that for “SEEKEHSDRLAEHLIHWFYTGDEDKLNELFDPNTKYVINGKELHGMESEHRERREEWRRVKNITFSIKHWDIQGNKVILHMTIHVGEKDIFVTYEYRIFDGKMKEIQVHVR”, 0.867.
As for “SEEKEIAERFIEMALQVWLTGDERSMVDMVDPHVLNIVGDKEHHGREILLKFLHDFKERFPNVRVKHRDVHIDLQGDKMEVRIDGRIHFDGKQFRLEIIIITTKIDGRWRVTHWEVRIE”, the protease stability score amounted to 2.19.
The result for “SEEKEIAERIVRELLYAYHTGDEQLFNHLADPHVRIHIGEFHKVGREHWEELHRWLDNHLRIHRFFFRDVEVQGEKVHIHVRTNTIIGDKRIDTNLLFFILVVNGKIKHMEVREI” reads 1.81; that for “SEEKEKAEHVVRQFLRVILTGDWERIEELMDPHVRFRVDVDGQTLHNHGRERLIDWYAKVKGLRNNLREIHIFENRAELHFESTIGDKHFKERIEIHIVDGRFKSVTFQFE”, 1.42; that for “SEEKELLEKISELLLKLLKTGDEETWNKLADPNMRLNVNGKDVHGWHKMIKLRHEVWEKLGIDHLEVKTIDIINGRVRIESRLVVNGRFIHIELEFHVINGRNEEEHLFVR”, 0.418.
The result for “SEEKEMLETWFLLLVESFETGDEELFEELADPRTRLVINGRHQHGREDINEWLHRVWHKLGAKHVSLDLHDMRVINGRIHSHFTLLIRIGDYTERRQVDLHMIIINGKVKHVEIRFR” reads 1.06; that for “SEEKEMVLHLAELLIELEFTGNWEKLFELADPNVLSRINGRELHGMEKHRKHWEEIRIHRVHIEKVHIETIGDKAKLDIHGRLDGEVNGVRDISESVIHIVSRKYDGRWIVKSIEIRVH”, 1.22; that for “SEEKERNHEIAEILIKLWLTGDEDHFWQLADPNPRVDFDGQEIIGRESIMRLLEHLIRRLGINHKHVDHTERQGDKVHIEVRLDQGEYHRTLHLEFIYVNGRVKEVRIRSRER”, 1.4.
The result for “SEEKHDSEKLSHLLDHEWLTGDEESFRKLADPHVKSNINGVRLHGWRELHQFLDEHFNHLGAKIEDSDTEHIHTQGDKAFIHSTFVLLVNGKRIELETFFRSRKFDGRWVLTEVHVH” reads 0.521; that for “SEEKHMYKKLIEEWLKSVITGDEEHIQHLVDPDVRMTIIFENHELRAVGWEEVVRVLKEIRIKHFELRRWDDVNGRVHLDGQMTIQFNGQEHQTSTHIEIMFINGRVKEIRLIIT”, 0.986; that for “SEEKHYFDSMLEIWRHLMQTGDERLFSELFDPNALVLFNGRHDHGRDAFRWILLQLRIDHINVHLRDFRKQGNKIIIHSEIEVDFTVNGQRREDSHMQIIIFHKIDGRWYATSLEVQ”, 1.53.
Turning to “SEEKKAIDEVLRLIFEAELTGNEDELEHLIDPHVKFHIDGVDVHGWEYLSYWIRQIRIHNLHPRSVEIHVYNGRVEVNIRGHYEGTINGRRTTFDMRVHIRIEKIDGVWIVREMSRHNH”, the protease stability score was 1.7.
The result for “SEEKKALDILLKTLIHTHQTGDEHTVRELVDPHVRIDFNGQELHGWEDARRFIVEMRLKHVDLRRVHHQGEKVELDGEVDGTYNGQEFHSKLHIVMRKVNGRWVFSQIEIK” reads 1.17; that for “SEEKKAWKLSLELHRRYVETGNEEDLIRFLDPHVRLEFNGQQYVGWEEVIRIMEELGFDVLKEIRLHSLDFQGEYVEVDGEVNGNINGRDRDHRIKFRMLKVDGKWLNHSVHVI”, 1.36; that for “SEEKKESDKFFEEWVRSAQTGDEDRVREMLDPNARVEIGDKTYVGRELFLRIMVEIRIKDIILKDIRIQGDKLRNDGELLITVDGKEIRVETHIIAEKVDGRWVLSRFVWH”, 1.35.
